Laboratory results taken from the supplement of paper PMC10724198.
± gives the standard deviation of the averaged measurements.

Experiments:
Saccharomyces cerevisiae [1] = experiment: protein stability index of tFT-peptide fusion (C-terminal peptide) (PSI (0-1 scale)); higher = more stable (slower turnover); settings: genetic background: wild type; temperature: 30 C
Saccharomyces cerevisiae [2] = experiment: as above
Method: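 MPS profiling in S. cerevisiae of the tFT-X12 degron library: putative degron peptides plus stable controls, 12 aa, fused to the C-terminus of a sfGFP-mCherry timer. Cells are FACS-sorted into 8 mCherry/sfGFP bins and deep-sequenced. PSI runs from 0 (unstable) to 1 (stable). Backgrounds are wild type, das1Δ and doa10Δ at 30 °C, and wild type, das1Δ, cdc34-1 and cdc53-1 at 37 °C; 2-3 technical replicates each.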

[3] = genetic background: cdc34-1, temperature: 37 C
[4] = genetic background: cdc53-1, temperature: 37 C
[5] = genetic background: das1 deletion, temperature: 30 C
[6] = genetic background: das1 deletion, temperature: 37 C
[7] = genetic background: doa10 deletion, temperature: 30 C
[8] = genetic background: wild type, temperature: 30 C
[9] = genetic background: wild type, temperature: 37 C
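Further: PSI is a weighted mean of sequencing reads over stability bins, variants kept only with over 10 reads, mCherry proximal and sfGFP distal, peptide attached via GGGS linker.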

Sequence	protein stability index (Saccharomyces cerevisiae [1])	protein stability index (Saccharomyces cerevisiae [2]; [3])	protein stability index (Saccharomyces cerevisiae [2]; [4])	protein stability index (Saccharomyces cerevisiae [2]; [5])	protein stability index (Saccharomyces cerevisiae [2]; [6])	protein stability index (Saccharomyces cerevisiae [2]; [7])	protein stability index (Saccharomyces cerevisiae [2]; [8])	protein stability index (Saccharomyces cerevisiae [2]; [9])
FFATFVPSFLLC	0.407 ± 0.033	0.606 ± 0.023	0.674 ± 0.048	0.556 ± 0.02	0.6776 ± 0.00086	0.268 ± 0.0089	0.305 ± 0.022	0.511 ± 0.021
FFCYFFEFFICG	0.382 ± 0.017	0.326 ± 0.054	0.419 ± 0.013	0.339 ± 0.028	0.468 ± 0.0082	0.337 ± 0.015	0.323 ± 0.011	0.441 ± 0.025
FFFVFLGLRSVF	0.387 ± 0.049	0.348 ± 0.019	0.358 ± 0.084	0.357 ± 0.04	0.577 ± 0.11	0.339 ± 0.011	0.292 ± 0.016	0.434 ± 0.012
FFGFFWLFLLFC	0.267 ± 0.0029	0.239 ± 0.022	0.222 ± 0.005	0.291 ± 0.021	0.364 ± 0.016	0.318 ± 0.019	0.202 ± 0.033	0.257 ± 0.02
FFIVGACAYVFA	0.319 ± 0.033	0.223 ± 0.036	0.30494 ± 0.00019	0.228 ± 0.031	0.385 ± 0.0094	0.204 ± 0.013	0.231 ± 0.029	0.37 ± 0.015
FFLLLVSVLSGW	0.316 ± 0.038	0.177 ± 0.035	0.255 ± 0.047	0.198 ± 0.017	0.3301 ± 0.00052	0.152 ± 0.02	0.185 ± 0.029	0.2942 ± 0.00091
FFPFHPHVLRLL	0.282 ± 0.053	0.421 ± 0.044	0.433 ± 0.014	0.477 ± 0.039	0.6373 ± 0.0012	0.215 ± 0.0068	0.203 ± 0.026	0.324 ± 0.014
FFRAYLQMYVTD	0.362 ± 0.018	0.412 ± 0.0053	0.471 ± 0.021	0.413 ± 0.029	0.4057 ± 0.0032	0.423 ± 0.032	0.416 ± 0.043	0.412 ± 0.0073
FFVFLVLFCLWV	0.391 ± 0.076	0.278 ± 0.027	0.259 ± 0.065	0.302 ± 0.035	0.397 ± 0.008	0.321 ± 0.022	0.261 ± 0.031	0.356 ± 0.0055
FFVFMAKLRTCN	0.0754 ± 0.063	0.455 ± 0.042	0.536 ± 0.034	0.444 ± 0.025	0.594 ± 0.0073	0.112 ± 0.019	0.127 ± 0.025	0.198 ± 0.029
FFVFYICSCFLV	0.4 ± 0.047	0.444 ± 0.037	0.476 ± 0.0043	0.389 ± 0.02	0.4843 ± 0.0041	0.457 ± 0.0071	0.372 ± 0.0097	0.442 ± 0.024
FFYVFPFFIFRF	0.406 ± 0.065	0.338 ± 0.046	0.31 ± 0.031	0.364 ± 0.04	0.521 ± 0.017	0.505 ± 0.025	0.362 ± 0.058	0.449 ± 0.0095
FGLRVHPIVFIF	0.128 ± 0.034	0.289 ± 0.032	0.269 ± 0.0053	0.374 ± 0.016	0.488 ± 0.018	0.0775 ± 0.022	0.0769 ± 0.016	0.0909 ± 0.047
FGLVAYPLWYIS	0.18 ± 0.013	0.504 ± 0.04	0.765 ± 0.0058	0.668 ± 0.014	0.777 ± 0.0099	0.0782 ± 0.031	0.0991 ± 0.0037	0.105 ± 0.029
FGSFVVWGVWWG	0.508 ± 0.018	0.458 ± 0.0071	0.4975 ± 0.0029	0.352 ± 0.036	0.563 ± 0.038	0.352 ± 0.015	0.356 ± 0.032	0.5069 ± 0.0015
FGVLGCAWVWVG	0.157 ± 0.045	0.394 ± 0.0091	0.528 ± 0.032	0.465 ± 0.033	0.625 ± 0.017	0.0888 ± 0.019	0.114 ± 0.021	0.103 ± 0.037
FICLLFSCVYLG	0.41 ± 0.072	0.51 ± 0.025	0.535 ± 0.013	0.464 ± 0.026	0.593 ± 0.039	0.3776 ± 0.0014	0.382 ± 0.026	0.5293 ± 0.005
FIGVLVFSWLLF	0.37 ± 0.03	0.244 ± 0.029	0.371 ± 0.0074	0.241 ± 0.035	0.412 ± 0.021	0.215 ± 0.0034	0.235 ± 0.024	0.381 ± 0.021
FKVTWGLFYGSV	0.44 ± 0.061	0.551 ± 0.098	0.653 ± 0.048	0.505 ± 0.034	0.581 ± 0.013	0.535 ± 0.059	0.548 ± 0.026	0.595 ± 0.011
FLCVLYFFLCVE	0.417 ± 0.18	0.218 ± 0.00042	0.3209 ± 0.0031	0.253 ± 0.03	0.404 ± 0.055	0.195 ± 0.01	0.224 ± 0.015	0.334 ± 0.022
